Data as given in publication PMC5960609 (Biochemical pharmacology, 2018).
Each block holds one molecule with its values, some of them ahead of it.

B4: TH553, thioredoxin fusion of human AHR aa1-295 (CΔ553) (domain or fragment, UniProt P35869 1-295, looked up)
chain: MNSSSANITYASRKRRKPVQKTVKPIPAEGIKSNPSKRHRDRLNTELDRLASLLPFPQDVINKLDKLSVLRLSVSYLRAKSFFDVALKSSPTERNGGQDNCRAANFREGLNLQEGEFLLQALNGFVLVVTTDALVFYASSTIQDYLGFQQSDVIHQSVYELIHTEDRAEFQRQLHWALNPSQCTESGQGIEEATGLPQTVVCYNPDQIPPENSPLMERCFICRLRCLLDNSSGFLAMNFQGKLKYLHGQKKKGKDGSILPPQLALFAIATPLQPPSILEIRTKNFIFRTKHKLDF

How the values were obtained:
GST-p23 W106A (human) = GST-p23 W106A (human) (UniProt Q15185); assay: pull-down
GST-p23 D108A (human) = GST-p23 D108A (human) (UniProt Q15185); assay: pull-down
GST-p23 D112A (human) = GST-p23 D112A (human) (UniProt Q15185); assay: pull-down
[1] = target: B4; assay: pull-down
[2] = target: Full-length human ARNT expressed in Pichia (human, UniProt P27540 1-789); assay: native gel or EMSA
Chain of Full-length human ARNT expressed in Pichia (P27540 whole entry): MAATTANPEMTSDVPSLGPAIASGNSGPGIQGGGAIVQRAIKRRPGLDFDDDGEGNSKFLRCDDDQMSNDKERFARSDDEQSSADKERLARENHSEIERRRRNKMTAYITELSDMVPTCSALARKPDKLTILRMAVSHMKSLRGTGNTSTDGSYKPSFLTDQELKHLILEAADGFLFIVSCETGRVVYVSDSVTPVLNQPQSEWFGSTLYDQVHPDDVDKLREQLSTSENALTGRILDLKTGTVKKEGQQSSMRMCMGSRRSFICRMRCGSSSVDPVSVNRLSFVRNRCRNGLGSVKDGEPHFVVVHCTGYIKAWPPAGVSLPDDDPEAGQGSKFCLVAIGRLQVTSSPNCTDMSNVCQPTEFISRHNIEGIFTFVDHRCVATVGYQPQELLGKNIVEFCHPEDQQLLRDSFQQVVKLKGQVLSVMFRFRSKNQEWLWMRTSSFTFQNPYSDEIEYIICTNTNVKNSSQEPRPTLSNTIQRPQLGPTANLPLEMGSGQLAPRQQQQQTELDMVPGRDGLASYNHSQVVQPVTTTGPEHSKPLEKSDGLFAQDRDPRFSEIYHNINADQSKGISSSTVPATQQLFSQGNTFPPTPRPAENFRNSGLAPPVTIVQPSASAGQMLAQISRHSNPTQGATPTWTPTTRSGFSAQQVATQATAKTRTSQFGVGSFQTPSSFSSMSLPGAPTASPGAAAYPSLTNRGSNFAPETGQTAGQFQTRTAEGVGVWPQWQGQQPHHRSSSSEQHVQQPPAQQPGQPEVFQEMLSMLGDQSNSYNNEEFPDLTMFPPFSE

Hsp90 co-precipitated, percent of wild-type p23 (GST-p23 W106A (human)): 19% | Hsp90 co-precipitated, percent of wild-type p23 (GST-p23 D108A (human)): 12% | Hsp90 co-precipitated, percent of wild-type p23 (GST-p23 D112A (human)): 41%
Molecule: Histidine fusion of full-length human Hsp90 (from UniProt P07900 1-732) (natural protein)

binding result [1]: binds
B1: GST-p23 D108A (natural protein, human, UniProt Q15185 1-160, looked up)
chain: MQPASAKWYDRRDYVFIEFCVEDSKDVNVNFEKSKLTFSCLGGSDNFKHLNEIDLFHCIDPNDSKHKRTDRSILCCLRKGESGQSWPRLTKERAKLNWLSVDFNNWKAWEDDSDEDMSNFDRFSEMMNNMGGDEDVDLPEVDGADDDSQDSDDEKMPDLE

binding result [1]: binds
B2: GST-p23 D112A (natural protein, human, UniProt Q15185 1-160, looked up)
chain: MQPASAKWYDRRDYVFIEFCVEDSKDVNVNFEKSKLTFSCLGGSDNFKHLNEIDLFHCIDPNDSKHKRTDRSILCCLRKGESGQSWPRLTKERAKLNWLSVDFNNWKDWEDASDEDMSNFDRFSEMMNNMGGDEDVDLPEVDGADDDSQDSDDEKMPDLE

binding result [1]: binds
B3: GST-p23 CΔ50 (p23 aa1-110, lacking the terminal 50 amino acids) (domain or fragment, human, UniProt Q15185 1-110, looked up)
chain: MQPASAKWYDRRDYVFIEFCVEDSKDVNVNFEKSKLTFSCLGGSDNFKHLNEIDLFHCIDPNDSKHKRTDRSILCCLRKGESGQSWPRLTKERAKLNWLSVDFNNWKDWE

Molecule: B4
binding result [2]: binds
